Assay: TIRF total EGFP fluorescence in adhered membrane
Details: glycan lost; control: wild type Kv1.1-EGFP

B1: Kv1.1: N207Q (protein)
parent chain: MTVMSGENADEASAAPGHPQDGSYPRQADHDDHECCERVVINISGLRFETQLKTLAQFPNTLLGNPKKRMRYFDPLRNEYFFDRNRPSFDAILYYYQSGGRLRRPVNVPLDMFSEEIKFYELGEEAMEKFREDEGFIKEEERPLPEKEYQRQVWLLFEYPESSGPARVIAIVSVMVILISIVIFCLETLPELKDDKDFTGTIHRIDNTTVIYTSNIFTDPFFIVETLCIIWFSFELVVRFFACPSKTDFFKNIMNFIDIVAIIPYFITLGTEIAEQEGNQKGEQATSLAILRVIRLVRVFRIFKLSRHSKGLQILGQTLKASMRELGLLIFFLFIGVILFSSAVYFAEAEEAESHFSSIPDAFWWAVVSMTTVGYGDMYPVTIGGKIVGSLCAIAGVLTIALPVPVIVSNFNYFYHRETEGEEQAQLLHVSSPNLASDSDLSRRSSSTISKSEYMEIEEDMNNSIAHYRQANIRTGNCTATDQNCVNKSKLLTDV
In the case of B1, the expression_or_secretion is reported as “no change”.

— article PMC4562626
